Source: a protein production outcome set (Wang et al. 2014)

Assay: label from the status in PepcDB records

Sequence	protein production
MTRTFDTPLPIDDALDELTAALEASNTAVLVAPPGAGKTTRVPLALLDAPWLRNQKIIVLEPRRIAARASAERMAKTLSEKAGERIGYRVRFGSKVSRATRIEVVTEGIFTRQILDDPELNGVAAVLFDEFHERSLDADLGLALARDAQQGLREDLRILVMSATIDGARVARLLGDAPVVESLGRAFPVETRYLGRRSDAPLERQMAEAIAQALRAETGSVLAFLPGAAEIRRTETMLRERVQDPAVEIVPLFGALDAAVQDRAIQPAPKGQRKVVLATSIAETSLTIEGVRIVVDCGLSRVPRYEPDLGLTRLETVRASRAAVDQRRGRAGRIEPGVCYRLWDEPQTASLPAYTQPEILSADLSSLLLDLAQWGVADPSSLAFLDPPPQPALKEARELLGELGALDPDGRITDEGRSLRAMALPPRLARMIVDAARHDCAKDAAEVAAILTERGLGGDSADLDNRRDQFRRDRSQRASSARQMAQRWATQAASSSPSPQDAGELSSGVLLAFAFPDRVAKNRGNGSFTLANGRGAAVEQTSALARAPYLAVGELTGSAAQGRILLAAPIALSEIELHFGDQITDADEVSFDRSAMALRARRRRALHAITLSEAPLALTPSEQTARVLAEGLVVAGLDRLPWSKQLQQWRGRVMFLRKAEGDPWPDLSDAALAETRENWLVPALFDKTGLKDFSASDLSDALMNLLPWELRARLDREAPTHFEAPTGSKLPIDYEAEQGPTIAVRLQELFGLTTHPSVAGGAVPLVLELLSPAHRPVQVTRDLPGFWRGSYAGVRADLRGRYPRHPWPEDPASAPPTRRAKPKGT	failed
MAGTSQMNNGRSWMQGEKMIPNKDDAEEFANKAKNAVNSGDYDGAIADIERAIKASPRSVPYHLIKADALYRKGDYEDALDVLNFAETIEKNNPELLSLKSICYGSLGKFNESKIEATKAIKADPNYPFAYYNRAKAEQYLEEYDIAKKDLQKYLEMQPNDPDAYMDLADMEYHEGDYKKALQHVNTAIKKDKESTDAHDLKLNILLAQKDIENYLKELLEAFKDTEDFKYIGTLVETLKSVGSFDTAEDILKEFIKIYKDEPFLYDALARVYYDQDRKDDAYRTYEELLKSNDDREAKIYWFDFLLDDGSYDRLIGEIEKSGLKDDEVLEIKYIAEDQKGDHKAALSTADDLLKLDRTPYNTSLYGSQLRKLGRLDESIKALSEFDDDPDVAYELFLAYMDRGDVHSASKYLKTSIENSEDDDDVISNVLEGVSKMMDHSDFQSVNDFLDGLGKENDNLYILTEAMHAINSGVFEGYEKGKEKFLGLDEHKEEVCEFANNIVELTEGKAKAFLEKFIEDNCGENEMEE	failed
MAKIKFFALGGQDERGKNCYVLEIDNDVFIFNVGSLTPTTAVLGVKKIIPDFSWIQENQARVKGIFIGNAITENLGSLEFLFHTVGFFPIYTSSIGASIIKSKINENKLNIARDKLEIHELKPLETIEISNHSITPFKVSSSLPSSFGFALNTDNGYIVFIDDFIVLNDKNIAFENQLNQIIPKLSDNTLLLITGVGLVGRNSGFTTPKHKSLEQLNRIITPAKGRIFVACYDSNAYSVMTLAQIARMQNRPFIIYSQSFVHLFNTIVRQKLFNNTHLNTISIEEINNSTNSIVVLTSPPDKLYAKLFKIGMNEDERIRYRKSDTFIFMTPKVAGYEEIEAQILDDIARNEVSYYNLGREILSIQASDEDMKFLVSSLKPKYIIPTGGLYRDFINFTMVLKQAGAEQNQILILFNGEVLTIENKKLDSKKNELKLNPKCVDSAGLQEIGASIMFERDQMSESGVVIIIIYFDQKKSEFLNEITYSFLGVSLDVPEKDKLKTKMEELIKKQINDIKDFTTIKKRIGKEISKELKVSIKRAVMNLFTKMTSKAPLILSTIISI	failed
MFSLSTQTMSAVAQRHPQTPISTITASNRQSSLHFKINSNNPEAHAQMRSGDEKGAIASITIEFQSVEQLHLHLGIMHLLSGDMKGAIEDFNQAILINPNYAEAYKGRGVAKVQLGDEKEAIEDLQKAADIFQEQEETAKYQEVINIIRQINDK	failed
MRYGFMKVAAAVPFVKVADCEYNIERIDRMVHEADAKGVEIMTFPELSITGYSCGDLFFQPFLQERANEALCRLVEQTANTTVMVIVGMPLRVEEKLFNSAVVFQQGKILGAIPKTYLPNYREFQEARWFSPAHTLQYSTISIGQHSVPIGRNLIFKCGTVGVGIEICEDMWTPFTPGTRLCLYGAEVIFNLSSSNENAGKHSYLRSLISGLSSQGICAYVYASSGYGESSTDIVFTGKAFIAEAGEIVEEMERFRYEERMIISDIDVSRIQTERLINSSFKA	failed
MIILDNLEQFKVVYRDGRKWNRCVEAIENIGNLRDGIMYSIGDSLVYMIEDGIAKNTETFVGNRRYFDIHYYLEGRETVEVASKSELESVQAYSDETDREHLNGNGQKHQLCEGQVAVFDNTKAYKFHGDNRVRKVVLKVTIEDGYFLNK	failed
MDREAFVQTLTACRLCPRLVAWREEVVGRKRAFRGEPYWARPVPGFGDPEARILLFGLAPGAHGSNRTGRPFTGDASGAFLYPLLHEAGLSSKPESLPGDDLRLYGVYLTAAVRCAPPKNKPTPEELRACARWTEVELGLLPEVRVYVALGRIALEALLAHFGLRKSAHPFRHGAHYPLPGGRHLLASYHVSRQNTQTGRLTREMFLEVLMEAKRLAGL	not failed
MLPAEYNVLVDYTGASTFTTFFFLLFFYVLDCYNVGHEDVRDSIARVSVASVLGIIFTGFTFYSFEHWRFERTTFVVLLLLVVGMTLLWRMVYHRFGQRFTTRPRVVLVGVDRAGRVRKLLNEGMPEAEILGYVGEGDVDPDAGPCLGAPYEPVEIARRYGATMLVMLPDAPVDEDIARDLLDAKLRGLMVVDIRTLYEHVAKRIPVDQIRDEWLLTEDGFNLNTQGSVRRLKRAFDVIVSLSLLITTAPIMLVAAIAIRMESPGPVIYRQKRVGINEQEFMVLKFRSMRTDAEKDGAVWATKGDSRVTRVGRFIRKVRIDELPQLWNVLRGDMSMIGPRPERMEFVRQLEKVIPYFYVRHSVKPGITGWAQVCYPYGASVEDARYKLEYDLYYIKNMSPLLDIQIVLKTVGVILFPKGAR	failed
MEPGLRLLIQLVLEFAPVFVNILHKRSEESLTTARYQVPNLIQGFIETINNINDIDNSNKSLEQEKLWQQQLVAYQRETQAQIANQQRDTALKLPEVNKILDSWPLRLYPSQILESHHSYERKPLKVFIAPPKIHFDKFDNHVETYSEIELMLAEGLREFINENYSLHSPTRPIEFLAGAWDSKRFHSESSIKALFGMLKTEPILILESENDGDYLNFRIAYWGLTQGTYYYKTISRLPYKEIIQNSAKNRALEWKKVRDELLEIGVDVEEINEFGKDNVFNLAILEKAEKWQAQGIDISKLSLQYRVSQQDIEQLCQVLITCHCLVAAWVADIYHLGNHDIPPLLPELLPSLLKNAIDVQSLQAIASSYKQVYEALEKERLYWIPELSMQLAQSLSHLPDTSWAQAEVDYSINTWLELRQVSLQQFTSPLEAMQSVVKIEDEEYIQKLREYFTVIGDRHNLQFVEKLLEAIATLKYKRSLEYPYLTKTITGHSGKVKSVAISPDGEVIVSGCTDQTVNIWNLQTGKLIRTLTGNLGEVSSVAISPDGNFLAVGSGVHPRSNVKVWHLKTGKLLHTLLGHQKPVNVVVISPDGQILASGSNKIKIWNLQKGDGVPPTVGDRICTLWHSSAVHAIAISPDSTILASGSSDNKIRLWNPRTGDPLRTLNSHDNEVKAIAISRDGQFLFSGSADTTIKIWHLITGQILHTLTGHSGDIKSLTTSPNGQFLFSGSADTTIKIWRISTGELLHTLTGHSASVNSVAISPGGNLLASGSADQTIKIWQIDKI	failed
MSDSAIGVGYAADNPGWLIGMSETQERLQRLRAQAASLVFYAGILESATGRAFLELLDALSHQQPLAAVTAYSTWLGHLLASRQSWPQWLMHHIRSDDNPFSRQAQFAIASSLPEVWQQSACQDLQTLQQLASAPPRLLAPMVQALADLPTPPPHWLEETRDREAQWAETEDWAMLLPDLIQHYQQRGVGFFNRYWALRWQQGQLHGIEHPDPIPLSDLAGYELQKETLKRNTEFLLAGLPAQNVLLYGSCGAGKSSMVKALINAYGDRGLRLIEVGKADLRELPQILDQLRESALSFIVFVDDLSFEEDDETFKALKVVLEGGLTARPPNVVVYATSNRRHLVREYFDERPNPTEANEVHAWDSVQEKLSFSDRFGLTLTFEPADQDTYLAIVRHLASEVGLTMPLETLEFRARQWATRHNGRSGRTARQFMDWLIAEQSLPNPL	failed
RSAEALFEKAVTPSDVGKLNRLVIPKHHAEKHFPLPSSNVSVKGVLLNFEDVNGKVWRFRYSYWNSSQSYVLTKGWSRFVKEKNLRAGDVVSFSRSNGQDQQLYIGWKSRSGSDLDA	not failed
MRNMQEKGVSEKEILEELKKYRSLDLKYEDGNIFGSMCSNVLPITRKIVDIFLETNLGDPGLFKGTKLLEEKAVALLGSLLNNKDAYGHIVSGGTEANLMALRCIKNIWREKRRKGLSKNEHPKIIVPITAHFSFEKGREMMDLEYIYAPIKEDYTIDEKFVKDAVEDYDVDGIIGIAGTTELGTIDNIEELSKIAKENNIYIHVDAAFGGLVIPFLDDKYKKKGVNYKFDFSLGVDSITIDPHKMGHCPIPSGGILFKDIGYKRYLDVDAPYLTETRQATILGTRVGFGGACTYAVLRYLGREGQRKIVNECMENTLYLYKKLKENNFKPVIEPILNIVAIEDEDYKEVCKKLRDRGIYVSVCNCVKALRIVVMPHIKREHIDNFIEILNSIKRD	not failed
MSLTIKLIAIDIDGTLLNEKNELAQETIDAVQAAKAQGIKVVLCTGRPLTGVQPYLDAMGISGDDQYAITFNGSVAQTISGKVLTNHSLTYEDYIDLEAWARKVRAHFQIETPDYIYTANKDISAYTIAESYLVRMLIRYREVSETPRDLTISKAMFVDYPQVIEQVKANMPQDFKDRFSVVQSAPYFIEVMNRRASKGGTLSELVDQLGLTADDVMTLGDQGNDLTMIKYAGLGVAMGNAIDEVKEAAQAVTLTNAENGVAAAIRKYALNEGHHHHHH	not failed
MISGFESIQLTTLILIVVAGFAAGWVDAVVGGGGLIQLPALLLVPGITPVQALATNKMGSIFGTTTSAVTYYRRVGPDLKTAVPMAVIALAGSFGGAILAASLPASVFKPIIVLALIAVAIFTALRPGAGELTALRHDGHKHYVVACLIGAVIGFYDGLIGPGTGSFLVIALVSAMGYAFLEASAKAKIVNMATNAGALIFFLPHGSLLWGVGLILGLANMAGGYLGARTAVARGSKFVRLVFLMVVAALIIKLGMDVWNENFAA	failed
MNRVFKKNSVFAIIFAACSWGGFLDRAYAEACPSEDFSKFLTVFSATPEVQQRFTAVKVQALVLKPAKQTDRFEPQTTDVANASLAYPLMGPIISDKTDGVQIEAVDDRHVRVIDKRAGHSDIKVFNFSRQTCWVLAGMEDWSISEKDLSAAVQPKMNRSESLCFQRGRAYAGLGGVEQYPLTAEFFEAALENYVCAAASGDPQASLNAASLSLSGMAPQLETEKVEALFKAASTTLADGAAGLSSFYCYGNNVAADGPCQHPEQAEKELVRAVSMGSSDATNYLGYTLETGELRTTDLDRAIACYRLAASMGNQTAADNLKRLSKQATDVSTAGHCY	failed
MAPPTAAPEPNTVPETSPTGHRMFSRIRLATPTDVPFIHKLIHQMAVFERLTHLFVATESGLASTLFNSRPFQAVTVFLLEISPSPFPTTHDASSPDFTPFLETHKVDLPIEDPDREKFLPDKLNDVVVAGFVLFFPNYPSFLAKQGFYIEDIFMREPYRRKGFGKLLLTAVAKQAVKLGVGRVEWIVIDWNVNAINFYEQMGAQVFKEWRLCRLTGDALQAIDKLNI	failed
MVSTRTHANGPADAGRTRLLFAAEIFPMNVFSRYLIRHLFLGFAAAAGLLLPLFTTFNLINELDDVSPGGYRWTQAVLVVLMTLPRTLVELSPFIALLGGIVGLGQLSKNSELTAIRSMGFSIFRIALVALVAGILWTVSLGAIDEWVASPLQQQALQIKSTATALGEDDDITGNMLWARRGNEFVTVKSLNEQGQPVGVEIFHYRDDLSLESYIYARSATIEDDKTWILHGVNHKKWLNGKETLETLDNLAWQSAFTSMDLEELSMPGNTFSVRQLNHYIHYLQETGQPSSEYRLALWEKLGQPILTLAMILLAVPFTFSAPRSPGMGSRLAVGVIVGLLTWISYQIMVNLGLLFALSAPVTALGLPIAFVLVALSLVYWYDRQH	failed
